According to the supplement of paper PMC11865577:

What was measured:
Test in all cases: pull-down binding Z-score (relative to library population); higher = stronger binding
TO-N3 (biotin conjugate) = conditions: RNA library: Library-2
Procedure, shortened: (§1)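 An RNA library (1 μg) carrying a Cy5 or Cy3 end label was heat-folded in phosphate/NaCl/KCl buffer, then incubated for 60 min at 25 °C with streptavidin beads loaded with 100 pmol of biotin-conjugated small molecule. The beads were washed three times, and bound RNA was released in hot SDS and hybridised to a DNA barcode microarray for 20 h at 55.5 °C. Each binding score was derived by subtracting the signal from beads without compound, averaging the barcoded replicate probes after removing the highest and lowest, and expressing the result as a Z-score relative to the library mean and standard deviation.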

[1] = tested on: TO-N3-2 (biotin conjugate); conditions: RNA library: Library-2
Procedure, shortened: as §1

[2] = tested on: G-clamp-N3 (biotin conjugate); conditions: RNA library: Library-1 (pre-miRNA loops + repeats)
Procedure, shortened: as §1

[3] = tested on: TO-3-N3-2 (biotin conjugate); conditions: RNA library: Library-2
Procedure, shortened: as §1

[4] = tested on: TO-3-N3 (biotin conjugate); conditions: RNA library: Library-2
Procedure, shortened: as §1

Row | Sequence | pull-down binding Z-score (TO-N3 (biotin conjugate)) | pull-down binding Z-score [1] | pull-down binding Z-score [2] | pull-down binding Z-score [3] | pull-down binding Z-score [4]
1 | UAAUCACAGGCCACAUUUCUGAAUA [hsa-mir-1295b] | -0.716 | -0.437 | -1.08 | -0.391 | -0.745
2 | AGAAACCUACUUAUUACAUAGUUUACAUAAGAAGCGUGAU [hsa-mir-1322] | 0.0288 | -0.00549 | -0.594 | -0.0921 | -0.129
3 | GCCCGCUGUGUUCACUCGGGC [hsa-mir-602] | -0.398 | -0.52 | 0.773 | -0.556 | -0.169
4 | CCCGGCCGGCAGCCCCCGGCCUUAAAGCGCGGG [hsa-mir-4741] | 0.228 | 2.16 | 0.653 | 0.194 | -0.112
5 | CGCGGGCGGGUCCCAGGCUGGGCCCCUCGGAGGCCGGGUGCUCACUGCCCCGUCCCGG [hsa-mir-6789] | 1.7 | 4.13 | 0.322 | -0.0304 | 0.75
6 | UCCUCCACAAAUGCGUGUGGAGGA [hsa-mir-4633] | -1.34 | -1.6 | 0.135 | -0.698 | -0.89
7 | AAGGGUGUAUGAGAGAUCAACCCUU [hsa-mir-5697] | 1.07 | 1.19 | 2.33 | -0.0393 | 0.544
8 | GCUUGCUGUACAUAACUCAAUAGCCGGAAGC [hsa-mir-129-2] | -0.0532 | 0.327 | -0.369 | -0.316 | -0.0763
9 | ACUGAACCAGCUUCAAACAAGUUCACU [hsa-mir-653] | -0.121 | -0.00579 | -0.145 | 0.0338 | -0.0896
10 | UCCACCCUGGUCCAGGUCCACAGCAGUGGA [hsa-mir-4644] | 0.441 | 0.479 | -0.617 | 0.0936 | 0.173
11 | CUAGUAUGUCUCAUCCCCUACUAG [hsa-mir-151a] | -0.343 | 0.072 | 0.0263 | -0.201 | -0.144
12 | GCUGCUGGUGCUCAUCUCAGC [hsa-mir-6877] | 0.825 | 0.602 | -0.152 | -0.0239 | 0.71
13 | CGAGCCGCUUCCUCACGGCUCG [hsa-mir-4665] | -1.04 | -0.871 | 0.651 | -0.853 | -0.622
14 | CCUCUCGGGAACUACAAGUCCCAGGGGG [hsa-mir-2861] | -0.794 | -0.455 | 0.879 | -0.409 | -0.694
15 | UGCUCUGAUGAAGACCCAUGUGGC [hsa-mir-621] | 0.589 | 1.51 | -0.6 | 0.285 | -0.162
16 | GACAUCUGGGCCAACUCUGAUCUC [hsa-mir-6515] | 0.113 | 0.777 | -1.32 | -0.126 | -0.163
17 | GGAAGGGAGCCCCAUUUACAGUGGUAACUUCCUUUCC [hsa-mir-5006] | 1.3 | 0.181 | -0.388 | 0.679 | 1.35
18 | UUUGCCAUUAAAAGUAAUGGUAAA [hsa-mir-548x-2] | -1.29 | -1.58 | -0.261 | -0.616 | -0.753

Row | Sequence | pull-down binding Z-score (TO-N3 (biotin conjugate)) | pull-down binding Z-score [1] | pull-down binding Z-score [2] | pull-down binding Z-score [3] | pull-down binding Z-score [4]
19 | UGCAUAAAUGAAGCUGAAUGA [hsa-mir-6134] | -0.0557 | 0.629 | -0.213 | 0.378 | -0.352
20 | CCAUCAAGCCCCACCAGAAGGUGGAGGCCCAGGUGAG [hsa-mir-4721] | 0.16 | 0.864 | -1.36 | -0.479 | 0.105
21 | GACCGUUGGCAUCUUAAUUACCCUC [hsa-mir-532] | -0.233 | 0.318 | -0.675 | -0.339 | -0.448
22 | CGGGCCCCUCCCCUCAAUGGGCCCG [hsa-mir-5685] | -0.493 | -0.886 | 0.108 | -0.162 | -0.255
23 | UGGUUAGCUUUUUUUUUUUUUUGAGAUGGAGUCUGGCUC [hsa-mir-8086] | -0.772 | -0.598 | -0.608 | 0.519 | -0.554
24 | GCCUCGCUUCCUGCCGGCGCGGC [hsa-mir-1538] | -0.389 | 0.147 | -0.287 | -0.601 | -0.255
25 | GCAGCCUUGC [hsa-mir-4298] | 0.264 | 0.0238 | 0.364 | -0.244 | 0.177
26 | ACCACUGUGAAGACAGUAAAAUGUACAGUGGU [hsa-mir-597] | -0.598 | -1.1 | 0.0112 | -0.0901 | -0.324
27 | AGGACGGUGCGCCUUGUUUCCC [hsa-mir-3132] | 0.0408 | 0.529 | -1.1 | -0.0152 | -0.376
28 | GGAUGGCCAGGGAAGUAUGCCGGGCCUUGGCAUUUC [hsa-mir-7159] | 0.814 | 1.9 | 2.04 | 0.175 | 0.218
29 | UUUUGCCAUUACUUUUACAGGCAAAA [hsa-mir-548aa-1] | -0.991 | -1.28 | -0.445 | -0.412 | -0.497
30 | CUUGAUUUAAAUGUCCAUACAAUUAAG [hsa-mir-124-1] | -0.179 | -0.133 | -0.57 | -0.142 | -0.0597
31 | CUUUCUGUGACUUUAAAAGUAAG [hsa-mir-302b] | -0.844 | -0.999 | -0.444 | -0.355 | -0.538
32 | UGGGUUUGAGUCUGAAUCAACUCA [hsa-mir-181b-2] | -0.805 | -0.572 | -0.649 | -0.254 | -0.728
33 | CCGUAUAUAUAUAUAUAUAUAUAUAGAUAUCUCCAUAUAUAUGG [hsa-mir-620] | -1.16 | -0.872 | 1.15 | -0.53 | -0.865
34 | GAGACUUUGUGAUUUGUCUCCAAAGCCUC [hsa-mir-6862-2_6862-1] | 0.0513 | -0.157 | -1.06 | -0.468 | 0.202
35 | AGAUAUAUAUAUACCUCAUAUGUAUAUGGUAUAC [hsa-mir-4777] | -1.37 | -0.944 | -1.5 | -0.53 | -1.2
36 | GGUCUGAGCCCAUGUGUGGACCUAGGUCUGCUGUUAAACUGACU [hsa-mir-6831] | 0.492 | 0.647 | -0.752 | 0.106 | 0.286
